Measurements: the RNAGym collection of RNA variant scans (doi:10.7554/elife.80360)

B1: HDV Ribozyme (parent)
chain: GGCCGGCAUGGUCCCAGCCUCCUCGCUGGCGCCGGCUGGGCAACAUUCCGAGGGGACCGUCCCCUCGGUAAUGGCGAAUGGGACCCA

Variants of: B1
Assay: self-cleavage, relative activity (ratio to wild type); higher = more cleavage; co-transcriptional

Variant	self-cleavage
U27G C63G	0.532
U27A C41G	0.858
U27C G39C	0.166
C26A G40A	1.01
G28A C48G	0
G28A C48A	0.0978
G25U G34A	0.0573
G25U G34C	0.0396
U27C C75G	0
U27C U46A	0.529
U27A C75A	0.147
G25U G67A	0.227
C26U C36U	0.975
G25U C64A	0.151
G25U C33A	0.156
G25U C33U	0.0831
U27C G81U	0.475
U27C G81A	0.374
U27A G80U	0.231
C26U C33U	0.872
C26U C33G	0.389
U27A C84G	0.957
G25U C66U	0.151
G25U C66A	0.172

Variant	self-cleavage
G25U G38A	0.0511
U27C A78C	0.0594
C26A A77G	0.902
G25U C26G	0.816
G25U C26U	0.0415
C26A C48A	0.941
C26A C48G	1.07
C26A C41G	0.883
C26A C41U	1.17
C26A C36G	0.196
U27C C33A	0
C26A G28U	0.222
C26A G28C	0.0791
U27A U60G	0.59
C26G G34A	0.54
U27G A43U	0.415
U27A C63A	0.95
U27G A42C	0.185
U27G A42U	0.229
C26G G68A	0.787
G28A A87G	0.0492
C26A U72G	0.657
U27G C64U	0.72
C26A C62G	0.63

Variant	self-cleavage
U27A G76C	0.943
G25U A51U	0.237
C26G G40C	0.19
U27A C49U	0.88
C26G C36A	0.151
C26G C36U	0.529
U27G G68C	0.87
U27A G39U	0.213
C26G C49A	0.95
C26A A70C	1.01
C26A A70G	1.11
G28A G40U	0.0256
G28A G40C	0.0702
G28A C32U	0.0845
C26U G34A	0.36
C26U G59A	1.08
C26U C66A	1.09
C26G G73U	0.291
U27G G74U	0.151
U27A G82C	0.322
C26U G31A	0.819
C26U G31U	0.762
U27G C49U	0.957
G28A G38A	0.0647

Variant	self-cleavage
C26U U65C	1.07
C26U U65G	1.02
U27G G50U	0.88
U27G G50C	0.6
U27A A42G	0.361
G25U G53A	0.19
U27G G53C	1.01
U27G G53A	0.923
U27G G34C	0.0692
U27G G34A	0.415
U27A C33G	0.287
C26G C41G	0.739
C26G C41U	0.76
U27G U47C	0.383
C26G G52C	0.889
C26G G52U	0.671
C26U G54C	1.03
U27C G80A	0.237
G25U A77U	0.0923
U27A U79G	0.831
U27A U79A	0.612
C26G G74U	0.359
G25U U72A	0.0707
G28A A77C	0.119

Variant	self-cleavage
U27C C61U	0.978
U27C C61A	0.898
C26U U72G	0.721
U27G U72A	0.361
G28A A70C	0.0554
U27A C86U	0.966
U27G G39U	0.222
G25U G82U	0.0252
U27A A83G	0.723
U27A A83U	0.88
C26A G35C	0.429
C26A G35U	0.619
U27A G40C	0.151
U27A G50A	0.967
U27A G50C	0.656
C26G U65G	1.09
C26G C75A	0.266
G25U C48U	0.102
C26G G39U	0.324
C26G G39C	0.18
G28A C75A	0.121
C26U C84G	0.962
G25U G55A	0.201
G25U C86U	0.108

Variant	self-cleavage
G25U C86A	0.102
G25U C86G	0.256
U27A A70G	0.987
U27A G74C	0
G25U C62A	0.138
U27C A70C	0.604
C26A A71G	1.11
U27A C48U	0.95
G25U U27A	0.135
U27A G73U	0.261
U27A A51G	0.997
U27C G38C	0.123
C26A G53C	0.759
C26A G73A	0.89
C26A G73C	0.522
C26A C44G	0.712
U27C C86G	1.2
U27G G29U	0.739
U27G G29C	0.733
C26A G54A	0.79
C26A G54C	1
G28A G50U	0.132
G28A G50A	0.0906
C26G C61A	1.12

Variant	self-cleavage
C26A A78G	0.831
U27G A77G	0.723
C26G C85A	1.06
C26G C85G	0.965
C26G G59U	0.831
C26G U46A	0.731
C26G C57A	0.812
G28A C58G	0.0369
C26U G73C	0.492
C26A C75G	0
C26U U37G	0.346
C26U U37C	1.34
C26G A83C	0.785
G25U G68A	0.0923
C26U G67A	0.947
C26U G67C	1.12
U27C G50U	0.628
U27C G50A	0.733
C26G	0.952
C26A	1.01
C26U	1.02
U27A	0.916
U27C	0.8
